According to the supplement of paper PMC10567573:
± gives the standard deviation.

Test: protein stability index of a GFP-peptide fusion (GPS, HEK-293T) (PSI 1-6); higher = more stable
[1] = treatment: DMSO, c terminus: a fixed tail appended
[2] = treatment: MLN4924 1 uM, 8 h, c terminus: a fixed tail appended
[3] = treatment: DMSO, c terminus: native
[4] = treatment: MLN4924 1 uM, 8 h, c terminus: native
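Also: 24-mer peptide tiles fused after GFP, lentivirally expressed, FACS-sorted into six equal bins by GFP/DsRed ratio, decoded by Illumina sequencing, PSI is the read-weighted mean bin number.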

Sequence | protein stability index [1] | protein stability index [2] | protein stability index [3] | protein stability index [4]
HHSRGNTNKFYMLDSRSTDRVLQW [KLHDC2] | 2.65 ± 0.39 | 2.72 ± 0.19 |  | 
DIYYNNMEEVCGGEKPYLSPDILE [ATL3] | 3.72 ± 0.57 | 3.59 ± 0.27 |  | 
KEDNSLLNQGFLQAKPEKAAVAQK [MYBL2] | 5.26 ± 0.12 | 5.14 ± 0.56 |  | 
VTETEETQEKKAESKEPIEEEPTG [SDE2] | 5.68 ± 0.19 | 5.85 ± 0.11 |  | 
ARLLQEGGGGVAAVVVLDQGSRHW [DUSP5] | 2.64 ± 0.97 | 2.44 ± 0.75 |  | 
LAVRGSRRERELERRELAVEQGER [ZBED3] | 5.05 ± 0.2 | 5.07 ± 0.18 |  | 
MKYYIVHLKRHFMFRNHLCLVFEL [DYRK1B] | 2.9 ± 0.53 | 2.44 ± 0.63 |  | 
ALCELLEKETQIIASIGRHRYIAY [IQUB] | 2.25 ± 0.3 | 2.16 ± 0.24 |  | 
APDLVLNAEMVQQTTYLEDRPMFM [LOXL2] | 3.25 ± 0.18 | 3.43 ± 0.17 |  | 
IGFGVYFEWTDSPNTAVSVHVSES [ACBD3] | 2.64 ± 0.9 | 2.95 ± 0.6 |  | 
LKPRPEPPKKPSNWRRKHEEFIAT [ZC2HC1A] | 3.47 ± 0.22 | 3.56 ± 0.17 |  | 
ALSSPRSRKNATQPPNAEEESGSS [INTS3] | 5.24 ± 0.31 | 5.38 ± 0.24 |  | 
TSENLKLVHIVCHKKTTHKLNCDP [DFFB] | 2.81 ± 0.19 | 2.97 ± 0.21 |  | 
LSGASPFLGETKQETLTNISAVNY [DAPK3] | 3.73 ± 0.2 | 3.85 ± 0.25 |  | 
YQYLHYALFKANRLEKAVAAAYTF [P3H4] | 2.22 ± 0.17 | 2.55 ± 0.25 |  | 
ILENSSQKENVFKCDSLKEECIPE [FAN1] | 4.68 ± 0.37 | 4.95 ± 0.09 |  | 
PMAADEGSAEKQAGEAHMAADGET [EHMT1] | 5.6 ± 0.17 | 5.66 ± 0.082 |  | 
QFTSSSSMKGSCGIGGGIGGGSSR [KRT16] | 3.29 ± 0.26 | 3.48 ± 0.32 |  | 
RFHDPSPAQSHTLQANDVFHKQQW [NET1] | 3.33 ± 0.11 | 3.4 ± 0.29 |  | 
DRFYVINYLVRLSFHNLKFDCSTA [ZNF277] | 2.98 ± 0.88 | 2.54 ± 0.43 |  | 
YEHHYHTLHGNVCSFCKRAFPSGH [ZNF511] | 2.73 ± 0.37 | 3.19 ± 0.54 |  | 
EDRIVTQNRVFAYLCKRVPHTVLD [CEP70] | 2.27 ± 0.2 | 2.37 ± 0.37 |  | 
DYFERNWEPRRDMWVRFRAFEAAR [ZSWIM9] | 2.56 ± 0.12 | 2.66 ± 0.32 |  | 

Sequence | protein stability index [1] | protein stability index [2] | protein stability index [3] | protein stability index [4]
TLCAVLERDTLSIRESRLFGAVVR [BTBD1] | 2.4 ± 0.38 | 2.22 ± 0.56 |  | 
VVEEAKCCCFFKRKRKKTAQRHK [CSNK1G1] |  |  | 4.18 ± 0.33 | 4.69 ± 0.42
SFRQGMHLTRHQRTHTGEKPYKCT [ZNF263] | 3.57 ± 0.65 | 3.7 ± 0.49 |  | 
CPQSLPCFEASDCKESSPMPVICG [NANOGP8] | 3.77 ± 0.18 | 3.89 ± 0.083 |  | 
HNRKKHLNGLQHLKAKKVWYDMFR [ZMAT5] | 2.22 ± 0.44 | 2.38 ± 0.27 |  | 
GEQDTWAGEGAEALARNLLVDGET [NFE2L1] | 5.18 ± 0.57 | 5.15 ± 0.46 |  | 
PCQKSPNGVRVFPPAMPPPATHLS [TRIM9] | 3.63 ± 0.31 | 3.78 ± 0.15 |  | 
HLYAEPQKSPWCEARSLEHTLPVN [ESR2] | 2.93 ± 0.23 | 3.38 ± 0.24 |  | 
EFARKGSCFLINTADRIIRVYDGR [RBBP5] | 2.23 ± 0.67 | 2.24 ± 0.26 |  | 
PDGVWAYNRGEHPIFVNSPTLDAP [SMAD6] | 3.56 ± 0.34 | 3.62 ± 0.16 |  | 
NEWRMVASMSKRRCGVGVSVLDDL [KLHL20] | 2.27 ± 0.52 | 2.25 ± 0.34 |  | 
SLSDQMSVLQSVWMEVLVLGVAQR [ESRRA] | 3.33 ± 0.35 | 2.98 ± 0.46 |  | 
SSDESPGSKCSPEDLATAYNNRGQ [TTC32] | 5.28 ± 0.18 | 5.44 ± 0.12 |  | 
QEAFLVQEVVELPVTERQIEREHL [TBC1D10A] | 4.94 ± 0.25 | 4.71 ± 0.23 |  | 
TWHHTKPLLPSDLRRTGCAALRIA [GAN] | 2.45 ± 0.33 | 2.48 ± 0.24 |  | 
KVLIQKNLGPKSKVLILRNHGLVS [ADD1] | 2.08 ± 0.36 | 2.16 ± 0.33 |  | 
MDYKSSLIQDGNPMENLEKQLICP [TRIM63] | 4.06 ± 0.29 | 4.14 ± 0.16 |  | 
MYLSPPSIHCLGPIKLELLEPKAN [VPS39] | 2.26 ± 0.38 | 2.41 ± 0.39 |  | 
LGMVTPVNDLRGSDSIAYDKGEKL [ADD1] | 4.62 ± 0.3 | 4.9 ± 0.089 |  | 
RERIERVRRIHIKRPDDRAHLHQ [KCTD10] |  |  | 4.2 ± 0.36 | 4.51 ± 0.35
LLFKYQMKEPITKAEILESVIKNY [MAGEA10] | 2.53 ± 0.32 | 2.74 ± 0.29 |  | 
KCCGMRNTDVSMENMVTVGFFSCM [KCNK9] | 2.59 ± 0.48 | 2.51 ± 0.44 |  | 
GVYSMPAGTKVFEVPEMSPVTCCD [TLE6] | 3.84 ± 0.33 | 3.45 ± 0.24 |  | 

Sequence | protein stability index [1] | protein stability index [2] | protein stability index [3] | protein stability index [4]
GKAYGWCSELIRHRRVHARKEPSH [ZNF232] | 3.23 ± 0.17 | 3.26 ± 0.38 |  | 
VAFGIEADDESLLRTSNGQPVKTA [DNAAF3] | 4.47 ± 0.23 | 4.52 ± 0.16 |  | 
GTFCSLDICLAQLEELGTLNVFQT [PTPN9] | 2.93 ± 0.92 | 2.24 ± 0.46 |  | 
TTTHAPPGVHRRYSALREESAKDW [PPFIA4] | 4.23 ± 0.3 | 4.47 ± 0.15 |  | 
SFMPLVIKVTSATSVNLGILTADL [SLC35F2] | 2.7 ± 1 | 2.87 ± 0.49 |  | 
DHSSQSEEEVVEGEKEVEALKKSA [BNIP3L] | 5.5 ± 0.36 | 5.67 ± 0.26 |  | 
HGNSGHPLVLSYIDLSAWCYYCQA [HDAC6] | 2.73 ± 0.55 | 3.14 ± 0.58 |  | 
GNFPTMEVKPKDIIHVVKDQLIGQ [TENT5D] | 4.08 ± 0.33 | 3.98 ± 0.35 |  | 
QYQYERYGAVELSGAGRRKNATRE [IRX6] | 4.5 ± 0.39 | 4.54 ± 0.32 |  | 
SPNFGFMGQLLQYESEILPSTPNP [DUSP5] | 3.59 ± 0.092 | 3.45 ± 0.48 |  | 
APDAHFTVDKQNISLWPREPPPKS [CD207] | 4.73 ± 0.24 | 4.78 ± 0.27 |  | 
RFQLLYVACGMVHLLIPELGACVA [DNAAF3] | 2.97 ± 0.17 | 3.39 ± 0.44 |  | 
GALPVGSNLTSNLASLVSQGMIQL [RETREG3] | 2.21 ± 0.24 | 2.46 ± 0.16 |  | 
TINPSKRITAAEALKHPWISHRST [CAMK2A] | 3.06 ± 0.23 | 3.21 ± 0.2 |  | 
GIVLQGPALCFAAAIFSLFFVPLS [TMEM175] | 2.89 ± 0.34 | 2.83 ± 0.17 |  | 
CSSSDDDTDVDMEGLRRRRGREAG [PBXIP1] | 5.3 ± 0.28 | 5.26 ± 0.21 |  | 
HSFFPDAFDYNSLSPTQRQKNFEL [SMTNL2] | 3.35 ± 0.19 | 3.44 ± 0.4 |  | 
FSQETVMKFVPRYSLVLELSDSGA [APMAP] | 2.75 ± 0.71 | 2.09 ± 0.27 |  | 
DRYIAICNPLRYSVLMGHGVCMGL [OR10K2] | 2.54 ± 0.27 | 2.43 ± 0.43 |  | 
QGLFFDMEAYLPKKNGLYLSLVLG [TMEM120A] | 2.67 ± 0.42 | 2.62 ± 0.23 |  | 
FRQLCYQETPGPREALTRLQELCY [ZSCAN9] | 2.48 ± 0.14 | 2.62 ± 0.25 |  | 
YKPEQPLVRLRGGAYIGEGRVEVL [LOXL2] | 3.12 ± 0.16 | 2.97 ± 0.47 |  | 
SEAAIGGAMLGQTTSEEAVGGATP [HDAC6] | 5.31 ± 0.26 | 5.4 ± 0.17 |  | 

Sequence | protein stability index [1] | protein stability index [2] | protein stability index [3] | protein stability index [4]
GNDFTQNAGTGLVINQADVRNNRS [PLD5] | 4.58 ± 0.35 | 4.55 ± 0.35 |  | 
EIFVDCDINREQLNDIFHLLKSHT [TPH1] | 2.19 ± 0.3 | 2.19 ± 0.35 |  | 
LDKNKIPYKGFIPEDLEAFIELH [FEM1A] |  |  | 3.1 ± 0.29 | 3.06 ± 0.27
FLVVLKTVLENEDDMLLFDEQEKG [FAN1] | 2.34 ± 0.23 | 2.28 ± 0.26 |  | 
PTESEPVTINIQDLLSCSNFAVQH [MATN2] | 3.56 ± 0.5 | 3.37 ± 0.43 |  | 
RDFAETHNCVDLMQAAEVFSQKHF [KLHL12] | 3.31 ± 0.23 | 3.21 ± 0.49 |  | 
REDITEPAICALRHLTSRHQEAEM [CTNNB1] | 4.58 ± 0.41 | 4.4 ± 0.43 |  | 
AIHYCASTSEESWTDSEVDSSCSG [SPDEF] | 5.28 ± 0.2 | 5.18 ± 0.37 |  | 
SGYALAEDGKRCVAVDYCASENHG [MATN2] | 4.28 ± 0.64 | 4.36 ± 0.21 |  | 
NPAPAAPCPLGEPKTQACSGSESP [MYCL] | 5.57 ± 0.23 | 5.63 ± 0.15 |  | 
LKLLDELPIAKVMKDYLKHKFDDI [ASB7] | 2.04 ± 0.3 | 2.14 ± 0.28 |  | 
RDHIPRGKEELESLGGGKTPPGR [MOG] |  |  | 3.87 ± 0.1 | 4.09 ± 0.42
LVVASGVIYCLGGYDGLNILNSVE [KLHL12] | 3.28 ± 0.25 | 3.03 ± 0.16 |  | 
EFQPAKCTDKENALKLFPVQPCSA [FAM189A2] | 3.97 ± 0.17 | 4.03 ± 0.51 |  | 
RVLRQPRPALAQQAQGARAGGSAR [GMCL1] | 5.03 ± 0.23 | 4.93 ± 0.19 |  | 
DRAAKRLSLESEGAGEGAAASPEL [TPPP] | 5.38 ± 0.14 | 5.32 ± 0.37 |  | 
TSQGQVRMRLFGQRCQKCSWSQYE [RTP4] | 2.4 ± 0.37 | 2.01 ± 0.39 |  | 
YDYLRKLFTDLFDRKGYMFDYEYD [CSNK1G3] | 2.11 ± 0.76 | 2 ± 0.3 |  | 
EMFLYFEDHGLVTCSADHLIILWK [WDR41] | 2.76 ± 0.4 | 2.68 ± 0.67 |  | 
KKDNHALVRETDELRRNHCFQDFK [ELOA2] | 4.11 ± 0.31 | 4.03 ± 0.3 |  | 
